Legend:
Assay type in all cases: biochemical
[1] = Laccase activity, violuric acid as substrate
[2] = pH- and temperature-dependent activity and inactivation profiles
Description: FIG. 2A represents the effect of various pH values on the activity of recombinant purified RL5 laccase. The activity was measured at 40° C. using 1 mM SGZ (syringaldazine) or DMP as substrate. The buffers (100 mM) used were: citrate (pH 3.0-5.5), MES (pH 5.5-7.0), HEPES (pH 7.0-8.0), Tris-HCl (pH 8.0-9.0) and glycine-NaOH (pH 9.0-12). The activity of RL5 for DMP reached an optimum at a broad pH ranging from 3.5-9.0, being optimal at 4.0-5.0; however, it maintained more than 70% activity at pH 3.5 and 9.0 (FIG. 2A).
FIG. 2B represents the pH inactivation of purified RL5 laccase in sodium citrate pH 4.5 (indicated with “∘”) or glycine-NaOH pH 9.0 (indicated with “[…]”) over a time period of 240 min. 100% activity in the purified protein sample equals 7.2 units/mg (measured at 40° C.).
FIG. 2C represents the effect of the temperature on the activity of recombinant purified RL5 laccase. The enzyme activity was assayed at each indicated temperature in sodium citrate pH 4.5 in the presence of 1 mM SGZ or DMP. Activity was monitored at 420 nm. Protein activity increased as the temperature was raised to a maximum at ˜60° C. Therefore, RL5 is stable at high temperatures.
FIG. 2D represents the thermal inactivation of purified RL5 laccase. Purified enzyme was incubated in vials at 60° C. ([…]) or 65° C. (∘). At the indicated times, samples were withdrawn and tested for laccase activity at 40° C. by using SGZ or DMP as a substrate. 100% activity in the purified protein sample equals 17.2 units/mg.
Corresponding experiments were performed with BT4389 and YfiH under conditions as described above for FIGS. 2A to 2D (data not shown). The activity of these enzymes reached an optimum at a temperature of 52° C. (for BT4389) and 44° C. (for YfiH) and the thermal activity maintained for more than 80% at 55° C. (for BT4389) and at 50° C. (for YfiH). The activity of both enzymes reached an optimum at a pH range from 4.5 to 6.0 (for BT4389) and from 5.5 to 8.4 (for YfiH), although 80% activity maintained at pH 4.0 to 7.5 (for BT4389) and 5.0 to 9.0 (for YfiH).
(§1) Laccase activity was determined spectrophotometrically in a thermostated spectrophotometer (Perkin-Elmer) at 40° C. in 100 mM sodium citrate buffer, pH 4.5 (1 ml). The standard assay was performed at 530 nm, using SGZ as the oxidation substrate (ε530=64,000 M^−1cm^−1). The reaction was started by adding SGZ, from a stock solution in methanol, to a final concentration of 20 μM. […] Oxidation of phenol red (75 μM) was determined by the decrease in absorbance at 432 nm. The activity:pH and activity:temperature relationships were determined by incubating the enzyme:substrate mixtures at different pH values and constant temperature (40° C.), and at different temperatures (15-80° C.) and constant pH (4.5), respectively. Catalytic constants were derived by fitting the experimental data onto the Michaelis-Menten model. Control measurements without enzyme were carried out to correct for possible chemical oxidation of the substrates.

[3] = Oxidation of benzo[a]pyrene (HPLC); conditions: 50 μM benzo[a]pyrene, HOBt, pH 4.5, overnight, room temperature
From the text: Procedures for cloning, expression and purification of laccase are described in the reference: Beloqui, A., et al. (2006), which is made part of the disclosure of the present application.
Benzo[a]pyrene was oxidized, however the oxidation products haven't been identified yet.

[4] = Oxidative reactions of various compounds (substrate preference, overall kinetics, pH range); conditions: order of oxidized substrates
Description: as §1

B1: RL5: polypeptide with laccase activity from bovine rumen metagenome library, amino acid sequence of FIG. 11 (protein)
chain: MIELEKLDFAKSVEGVEAFSTTRGQVDGRNAYSGVNLCDYVGDDALRVLDARLTLAMQLGVDLDDLVMPRQTHSCRVAVIDERFRALDIDEQEAALEGVDALVTRLQGIVIGVNTADCVPIVLVDSQAGIVAVSHAGWRGTVGRIAKAVVEEMCRQGATVDRIQAAMGPSICQDCFEVGDEVVEAFKKAHFNLNDIVVRNPATGKAHIDLRAANRAVLVAAGVPAANIVESQHCSRCEHTSFFSARRLGINSGRTFTGIYRK
modifications: Description of sequence Amino acid sequence of RL5 laccase 3217 to 2414 frame 1 - 262 amino acids (see Figure 11)
For B1, the “substrate of the laccase” value [1] was “not substrates”, the “pH optimum of activity” value ([2]; 40° C., 1 mM substrate, 100 mM buffers) was 4.0-5.0 pH and the “activity maintained at pH 3.5 and 9.0” value ([2]; DMP, 40° C.) was “more than 70%”. The “broad pH range of activity” value ([2]; DMP, 40° C.) was 3.5-9.0 pH, the thermal stability ([2]; incubated at 60° C. or 65° C.) was “highly stable at this temperatures over a long time period, for at least four hours” and the “100% activity in the purified protein sample” value ([2]; pH inactivation experiment, measured at 40° C.) was 7.2 units/mg. For the same molecule, the “temperature optimum of activity” value ([2]; sodium citrate pH 4.5, 1 mM SGZ or DMP) was about 60 °C, the pH stability ([2]; sodium citrate pH 4.5 or glycine-NaOH pH 9.0, 240 min) was “highly stable over a long time period at these pHs” and the “100% activity in the purified protein sample” value ([2]; thermal inactivation experiment, tested at 40° C., SGZ or DMP) was 17.2 units/mg. The “oxidation of benzo[a]pyrene” value [3] was “oxidized” and the substrate preference [4] was “SGZ>DMP>veratryl alcohol>guaiacol>tetramethylbenzidine>4-metoxybenzyl alcohol>2ABTS>phenol red”.

— US20090305339A1, “Polypeptides With Laccase Activity” (VIALACTIA BIOSCIENCES (NZ) LIMITED, priority 2006, published 2009)
